Laboratory results taken from US5686592.

What was measured:
Test in all cases: filter
mouse IgE (Mus musculus) = target: T1, mouse IgE (Mus musculus) (UniProt P06336)
T1 sequence: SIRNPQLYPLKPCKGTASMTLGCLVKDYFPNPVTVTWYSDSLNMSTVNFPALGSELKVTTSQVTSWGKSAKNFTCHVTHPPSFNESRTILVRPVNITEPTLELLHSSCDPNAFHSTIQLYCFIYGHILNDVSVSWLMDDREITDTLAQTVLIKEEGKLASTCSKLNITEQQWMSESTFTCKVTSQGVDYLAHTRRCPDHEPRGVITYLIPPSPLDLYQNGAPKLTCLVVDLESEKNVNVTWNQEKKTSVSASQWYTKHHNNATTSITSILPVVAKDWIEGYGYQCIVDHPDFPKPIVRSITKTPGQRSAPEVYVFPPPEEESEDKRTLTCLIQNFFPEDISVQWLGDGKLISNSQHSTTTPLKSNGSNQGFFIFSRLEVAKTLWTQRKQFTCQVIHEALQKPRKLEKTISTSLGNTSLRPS

[1] = tested on: human IgE (Homo sapiens), P01854-1
Sequence of human IgE (Homo sapiens), P01854-1 (P01854 other isoform, or with tags, fused parts or gaps): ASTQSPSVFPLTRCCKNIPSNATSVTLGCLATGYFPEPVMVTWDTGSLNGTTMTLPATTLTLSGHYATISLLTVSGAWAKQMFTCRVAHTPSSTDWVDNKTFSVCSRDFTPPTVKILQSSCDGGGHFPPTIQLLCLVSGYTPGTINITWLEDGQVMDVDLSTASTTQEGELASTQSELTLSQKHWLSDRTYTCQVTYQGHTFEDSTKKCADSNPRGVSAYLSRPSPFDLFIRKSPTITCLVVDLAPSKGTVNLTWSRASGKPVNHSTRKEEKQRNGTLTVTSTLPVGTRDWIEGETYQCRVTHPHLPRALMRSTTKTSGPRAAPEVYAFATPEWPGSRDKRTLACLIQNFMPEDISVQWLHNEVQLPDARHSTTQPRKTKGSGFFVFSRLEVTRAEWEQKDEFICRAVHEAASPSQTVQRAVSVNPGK

[2] = target: T2, rat IgE (Rattus norvegicus) (UniProt P01855); details: 2'-NH2 on all C and U; specificity control
T2 sequence: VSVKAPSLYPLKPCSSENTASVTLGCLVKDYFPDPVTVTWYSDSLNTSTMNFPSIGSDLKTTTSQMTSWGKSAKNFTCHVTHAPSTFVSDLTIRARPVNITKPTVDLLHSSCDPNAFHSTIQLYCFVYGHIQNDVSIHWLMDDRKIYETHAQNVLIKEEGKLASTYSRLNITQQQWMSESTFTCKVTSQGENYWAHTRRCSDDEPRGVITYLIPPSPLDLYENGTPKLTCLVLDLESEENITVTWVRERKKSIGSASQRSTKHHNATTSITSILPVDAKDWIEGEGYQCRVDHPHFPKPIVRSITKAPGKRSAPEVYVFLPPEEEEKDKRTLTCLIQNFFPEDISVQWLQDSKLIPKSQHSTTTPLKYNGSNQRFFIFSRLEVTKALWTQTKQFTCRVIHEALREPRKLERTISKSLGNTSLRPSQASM

human IgG (Homo sapiens) = details: specificity control
[3] = 2'-NH2 on all C and U, specificity control
[4] = 2'-NH2 on all C and U, starting pool

CTACCTACGATCTGACTAGCNNNNNNNNNNNNNNNNNNNNNNNNNNNNNNNNNNNNNNNNGCTTACTCTCATGTAGTTCC [40NBHI starting DNA pool]
Kd (mouse IgE (Mus musculus); starting pool): > 1 µM | Kd ([1]; starting pool): > 50 µM

CTACCTACGATCTGACTAGCNNNNNNNNNNNNNNNNNNNNNNNNNNNNNNNNNNNNNNNNGCTTACTCTCATGTAGTTCC [Round 15 human IgE DNA pool]
Kd ([1]; enriched pool, modified PBS, 1 mM Mg2+, 37 C): 0.01 µM

CTACCTACGATCTGACTAGCNNNNNNNNNNNNNNNNNNNNNNNNNNNNNNNNNNNNNNNNGCTTACTCTCATGTAGTTCC [Round 15 mouse IgE DNA pool]
Kd (mouse IgE (Mus musculus); enriched pool): 0.02 µM | Kd ([1]; mouse-IgE-enriched pool against human IgE): > 50 µM

GGGAGGACGAUGCGGGUGUGAAUGGUGUUGUGAGG [IGEL1.2]
Kd [2]: > 5 µM | Kd (mouse IgE (Mus musculus); [3]): > 5 µM

GGGAGGACGAUGCGGGUGUGGGGCG [IGEL2.2]
Kd [2]: > 5 µM | Kd (mouse IgE (Mus musculus); [3]): > 5 µM

GGGAGGACGAUGCGGNNNNNNNNNNNNNNNNNNNNNNNNNNNNNNNNNNNNNNNNCAGACGACUCGCCCGA [40N7 starting RNA pool]
Kd [1, 4]: > 50 µM

GGGAGGACGAUGCGGNNNNNNNNNNNNNNNNNNNNNNNNNNNNNNNNNNNNNNNNNNNNNNNNNNNNNNNNNNNNCAGACGACUCGCCCGA [60N7 starting RNA pool]
Kd [1, 4]: > 50 µM

GGGGCACGTTTATCCGTCCCTCCTAGTGGCGTGCCCC [D17.4]
Kd (mouse IgE (Mus musculus); specificity control): > 10 µM | Kd (human IgG (Homo sapiens)): > 10 µM
